Results reported in US20120058906A1 (published 2012).

Assays:
[1] = biological target: T1, rHuman EGF R/Fc Chimera, CF (R&D Systems Cat#344-ER) (human, UniProt P00533 25-645); assay: MSD ECL multi-spot plate, antigen immobilized; Fab 1.6 nM; blank spot 449
T1 construct: Purchased Fc chimera; not shown: Fc portion of the purchased chimera

[2] = biological target: T2, rHuman P-Cadherin/Fc Chimera, CF (R&D Systems Cat#861-PC) (human, UniProt P22223 108-654); assay: as above
T2 construct: Purchased Fc chimera; not shown: Fc portion of the purchased chimera

[3] = biological target: T3, rHuman HGF R/c-MET/Fc Chimera, CF (R&D Systems Cat#358-MT/CF) (human, UniProt P08581 25-932); assay: as above
T3 construct: Purchased Fc chimera; also called HGF R/Fc; not shown: Fc portion of the purchased chimera

[4] = biological target: T4, rHuman CD44/Fc Chimera, CF (R&D Systems Cat#3660-CD) (human, UniProt P16070 21-220); assay: as above
T4 construct: Purchased Fc chimera; not shown: Fc portion of the purchased chimera

[5] = biological target: T5, rHuman Erythropoietin R/Fc Chimera, CF (R&D Systems Cat#963-ER) (human, UniProt P19235 25-250); assay: MSD ECL titration, Fab 595.8 nM, blank 285
T5 construct: Bought Fc chimera; also called EPO R/Fc; EPOR; Fc part of the bought chimera not given
T5 sequence: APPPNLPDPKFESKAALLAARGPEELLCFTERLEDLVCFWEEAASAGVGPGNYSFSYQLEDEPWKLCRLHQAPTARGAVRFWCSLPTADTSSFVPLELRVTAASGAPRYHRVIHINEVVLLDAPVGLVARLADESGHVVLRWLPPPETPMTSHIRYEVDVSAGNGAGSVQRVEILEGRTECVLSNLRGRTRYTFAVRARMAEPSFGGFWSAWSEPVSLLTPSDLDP

[6] = biological target: T6, rHuman EGF R/Fc Chimera, CF (R&D Systems Cat#344-ER) (human, UniProt P00533 25-645); assay: MSD ECL titration, Fab 595.8 nM, blank 285
T6 construct: Bought Fc chimera; Fc part of the bought chimera not given

[7] = biological target: T7, rHuman Notch-1/Fc Chimera, CF (R&D Systems Cat#3647-TK) (human, UniProt P46531 19-526); assay: MSD ECL titration, Fab 595.8 nM, blank 285
T7 construct: Bought Fc chimera; Fc part of the bought chimera not given

[8] = biological target: T8, Recombinant Human DLL4 (R&D Systems Cat#1506-D4/CF) (human, UniProt Q9NR61 27-524); assay: MSD ECL titration, Fab 595.8 nM, blank 285
T8 construct: Bought recombinant protein; also called rHuman DLL4; delta-like protein 4

[9] = biological target: T9, rHuman P-Cadherin/Fc Chimera, CF (R&D Systems Cat#861-PC) (human, UniProt P22223 108-654); assay: MSD ECL titration, Fab 595.8 nM, blank 285
T9 construct: Bought Fc chimera; Fc part of the bought chimera not given

[10] = biological target: T10, rHuman IGF-1 sR (insulin-like growth factor-1 soluble receptor), CF (R&D Systems Cat#391-GR) (human, UniProt P08069 31-932); assay: MSD ECL titration, Fab 595.8 nM, blank 285
T10 construct: Bought soluble receptor; also called IGF-R1

[11] = biological target: T11, rHuman ErbB2/Fc Chimera, CF (R&D Systems Cat#1129-ER) (human, UniProt P04626 23-652); assay: MSD ECL titration, Fab 595.8 nM, blank 285
T11 construct: Bought Fc chimera; also called HER2/neu; Fc part of the bought chimera not given

[12] = biological target: T12, rHuman CD44/Fc Chimera, CF (R&D Systems Cat#3660-CD) (human, UniProt P16070 21-220); assay: MSD ECL titration, Fab 595.8 nM, blank 285
T12 construct: Bought Fc chimera; Fc part of the bought chimera not given

[13] = biological target: T13, rHuman HGF R/c-MET/Fc Chimera, CF (R&D Systems Cat#358-MT/CF) (human, UniProt P08581 25-932); assay: MSD ECL titration, Fab 595.8 nM, blank 285
T13 construct: Bought Fc chimera; also called HGF R/Fc; Fc part of the bought chimera not given

[14] = biological target: T14, rHuman ErbB2/Fc Chimera, CF (R&D Systems Cat#1129-ER) (human, UniProt P04626 23-652); assay: ECL (MSD multi-spot), antigen spotted on plate; Fab 88.1 nM; blank spot 301
T14 construct: Bought reagent; also called HER2/neu; human epidermal growth factor 2 receptor; Fc part of the bought chimera not given

[15] = biological target: T15, rHuman Notch-1/Fc Chimera, CF (R&D Systems Cat#3647-TK) (human, UniProt P46531 19-526); assay: as above
T15 construct: Bought reagent; Fc part of the bought chimera not given

[16] = biological target: T16, rHuman EGF R/Fc Chimera, CF (R&D Systems Cat#344-ER) (human, UniProt P00533 25-645); assay: as above
T16 construct: Bought reagent; also called epidermal growth factor receptor; Fc part of the bought chimera not given

[17] = biological target: T17, rHuman IGF-1 sR (IGF-1 sR), CF (R&D Systems Cat#391-GR) (human, UniProt P08069 31-932); assay: as above
T17 construct: Bought soluble receptor; also called insulin-like growth factor-1 soluble receptor; IGF-R1

[18] = biological target: T18, rHuman CD44/Fc Chimera, CF (R&D Systems Cat#3660-CD) (human, UniProt P16070 21-220); assay: as above
T18 construct: Bought reagent; Fc part of the bought chimera not given

[19] = biological target: T19, rHuman HGF R/c-MET/Fc Chimera, CF (R&D Systems Cat#358-MT/CF) (human, UniProt P08581 25-932); assay: as above
T19 construct: Bought reagent; also called HGF R/Fc; hepatocyte growth factor receptor; Fc part of the bought chimera not given
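Further: blank spot per well as comparator with Hit at signal to blank ratio of 4 or more.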

B1: Fab VH5-51_IGHD5-18*01>3_IGHJ4*01_G100R & V3-4_IGLJ1*01 (Fab, V domains shown)
VH: EVQLVQSGAEVKKPGESLKISCKGSGYSFTSYWIGWVRQMPGKGLEWMGIIYPGDSDTRYSPSFQGQVTISADKSISTAYLQWSSLKASDTAMYYCARRRYSYGYDYFDYWGQGTLVTVSS
VL: QTVVTQEPSFSVSPGGTVTLTCGLSSGSVSTSYYPSWYQQTPGQAPRTLIYSTNTRSSGVPDRFSGSILGNKAALTITGAQADDESDYYCVLYMGSGISYVFGTGTKVTVL
notes: It was expressed as a Fab: CH1 with tags from Plasmid A and lambda CL from Plasmid E; also called Fab No. 23
ECL signal [1]: 1200 ECL signal
ECL signal [2]: 666 ECL signal
ECL signal [3]: 1210 ECL signal
ECL signal [4]: 997 ECL signal

B2: Fab VH1-46_IGHD6-6*01_IGHJ1*01 & L6_IGKJ1*01 (Fab, V domains shown)
VH: QVQLVQSGAEVKKPGASVKVSCKASGYTFTSYYMHWVRQAPGQGLEWMGIINPSGGSTSYAQKFQGRVTMTRDTSTSTVYMELSSLRSEDTAVYYCAREEYSSSSAEYFQHWGQGTLVTVSS
VL: not shown
notes: Expressed in E. coli as Fab: heavy chain with CH1 plus Flag and His tags from Plasmid A, kappa light chain constant region from Plasmid C; also called Fab No. 1
ECL signal [5]: 378
ECL signal [6]: 403
ECL signal [7]: 306
ECL signal [8]: 17200
ECL signal [9]: 617
ECL signal [10]: 335
ECL signal [11]: 321
ECL signal [12]: 372
ECL signal [13]: 353

B3: Fab VH1-46_IGHD3-10*01_IGHJ4*01 & B3_IGKJ1*01 (Fab, V domains shown)
VH: QVQLVQSGAEVKKPGASVKVSCKASGYTFTSYYMHWVRQAPGQGLEWMGIINPSGGSTSYAQKFQGRVTMTRDTSTSTVYMELSSLRSEDTAVYYCAREYYYGSGSYYNDYFDYWGQGTLVTVSS
VL: not shown
notes: also called IGHV1-46*01
ECL signal [14]: 200
ECL signal [15]: 440
ECL signal [16]: 376
ECL signal [17]: 273
ECL signal [18]: 340
ECL signal [19]: 392
